Test results taken from patent publication US20210261671A1 (HARPOON THERAPEUTICS, published 2021).
Each block holds one binder with its values, some of them ahead of it.

What was measured:
[1] = molecular target: T1, anti-FLT3/anti-albumin/anti-CD3 multispecific protein containing humanized FLH19C; test: BLI (Octet), biotinylated FLT3 on streptavidin tips
T1 construct: trispecific single-chain fusion with His6; purified from CHO conditioned medium
Procedure: (§1) The affinities of the purified multispecific proteins for human and cynomolgus FLT3 were measured with an Octet instrument with streptavidin tips were loaded with biotinylated human or cynomolgus FLT3 protein. The tips were then incubated with solutions containing 50, 16.7, 5.6, or 1.9 nM of the multispecific protein. Affinities (KD), listed in Table 7, were calculated by measuring the on rate and off rate of binding of anti-FLT3/anti-albumin/anti-CD3 multispecific proteins to the captured biotinylated FLT3 proteins.

[2] = molecular target: T2, anti-FLT3/anti-albumin/anti-CD3 multispecific protein containing humanized FLH141; test: as above
T2 construct: trispecific single-chain fusion with His6; purified from CHO conditioned medium
Procedure: as §1

[3] = molecular target: T3, anti-FLT3/anti-albumin/anti-CD3 multispecific protein containing humanized FLH34; test: as above
T3 construct: trispecific single-chain fusion with His6; purified from CHO conditioned medium
Procedure: as §1

[4] = molecular target: T4, anti-FLT3/anti-albumin/anti-CD3 multispecific protein containing humanized FLH4; test: as above
T4 construct: trispecific single-chain fusion with His6; purified from CHO conditioned medium
Procedure: as §1

[5] = molecular target: T5, anti-FLT3/anti-albumin/anti-CD3 multispecific protein containing humanized FLH92b; test: as above
T5 construct: trispecific single-chain fusion with His6; purified from CHO conditioned medium
Procedure: as §1

[6] = molecular target: T6, anti-FLT3/anti-albumin/anti-CD3 multispecific protein containing humanized FLH107; test: as above
T6 construct: trispecific single-chain fusion with His6; purified from CHO conditioned medium
Procedure: as §1

[7] = molecular target: T7, anti-FLT3/anti-albumin/anti-CD3 multispecific protein containing humanized FLH78; test: as above
T7 construct: trispecific single-chain fusion with His6; purified from CHO conditioned medium
Procedure: as §1

[8] = molecular target: T8, anti-FLT3/anti-albumin/anti-CD3 multispecific protein containing humanized FLH92a; test: as above
T8 construct: trispecific single-chain fusion with His6; purified from CHO conditioned medium
Procedure: as §1

[9] = molecular target: T9, anti-FLT3/anti-albumin/anti-CD3 multispecific protein containing FLL71; test: BLI (Octet), conditioned medium, single 50 nM concentration (relative affinity)
T9 construct: trispecific single-chain fusion with His6; Expi293 conditioned medium
Procedure: (§2) Additional affinity determinations were performed using conditioned media from Example 2 with known concentrations of anti-FLT3/anti-CD3 multispecific proteins. […] An Octet instrument with streptavidin tips were loaded with biotinylated human or cynomolgus FLT3 protein, and KD values for binding FLT3 were calculated by measuring the on rate and off rate of binding of anti-FLT3/anti-CD3 multispecific proteins to the biotinylated FLT3 proteins.

[10] = molecular target: T10, anti-FLT3/anti-albumin/anti-CD3 multispecific protein containing FLL92; test: as above
T10 construct: trispecific single-chain fusion with His6; Expi293 conditioned medium
Procedure: as §2

[11] = molecular target: T11, anti-FLT3/anti-albumin/anti-CD3 multispecific protein containing FLL134; test: as above
T11 construct: trispecific single-chain fusion with His6; Expi293 conditioned medium
Procedure: as §2

[12] = molecular target: T12, anti-FLT3/anti-albumin/anti-CD3 multispecific protein containing FLL8; test: as above
T12 construct: trispecific single-chain fusion with His6; Expi293 conditioned medium
Procedure: as §2

[13] = molecular target: T13, anti-FLT3/anti-albumin/anti-CD3 multispecific protein containing FLL153; test: as above
T13 construct: trispecific single-chain fusion with His6; Expi293 conditioned medium
Procedure: as §2

[14] = molecular target: T14, anti-FLT3/anti-albumin/anti-CD3 multispecific protein containing FLL41; test: as above
T14 construct: trispecific single-chain fusion with His6; Expi293 conditioned medium
Procedure: as §2

[15] = molecular target: T1, anti-FLT3/anti-albumin/anti-CD3 …; test: biolayer interferometry (data not shown)

T1 sequence (chain, as listed by the source): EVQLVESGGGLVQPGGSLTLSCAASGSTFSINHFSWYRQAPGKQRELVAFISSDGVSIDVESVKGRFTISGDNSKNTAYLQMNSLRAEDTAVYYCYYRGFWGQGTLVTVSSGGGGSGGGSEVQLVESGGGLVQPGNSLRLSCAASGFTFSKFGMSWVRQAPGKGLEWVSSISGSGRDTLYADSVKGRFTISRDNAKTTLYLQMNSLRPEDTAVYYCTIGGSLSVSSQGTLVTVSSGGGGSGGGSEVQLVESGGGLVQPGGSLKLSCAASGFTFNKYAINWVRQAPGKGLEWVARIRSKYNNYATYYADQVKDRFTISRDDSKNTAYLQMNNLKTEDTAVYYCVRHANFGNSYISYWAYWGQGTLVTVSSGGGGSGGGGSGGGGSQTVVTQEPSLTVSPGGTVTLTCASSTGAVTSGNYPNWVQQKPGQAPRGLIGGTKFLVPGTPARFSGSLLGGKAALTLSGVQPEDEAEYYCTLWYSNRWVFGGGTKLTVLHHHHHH
T4 sequence (chain, as listed by the source): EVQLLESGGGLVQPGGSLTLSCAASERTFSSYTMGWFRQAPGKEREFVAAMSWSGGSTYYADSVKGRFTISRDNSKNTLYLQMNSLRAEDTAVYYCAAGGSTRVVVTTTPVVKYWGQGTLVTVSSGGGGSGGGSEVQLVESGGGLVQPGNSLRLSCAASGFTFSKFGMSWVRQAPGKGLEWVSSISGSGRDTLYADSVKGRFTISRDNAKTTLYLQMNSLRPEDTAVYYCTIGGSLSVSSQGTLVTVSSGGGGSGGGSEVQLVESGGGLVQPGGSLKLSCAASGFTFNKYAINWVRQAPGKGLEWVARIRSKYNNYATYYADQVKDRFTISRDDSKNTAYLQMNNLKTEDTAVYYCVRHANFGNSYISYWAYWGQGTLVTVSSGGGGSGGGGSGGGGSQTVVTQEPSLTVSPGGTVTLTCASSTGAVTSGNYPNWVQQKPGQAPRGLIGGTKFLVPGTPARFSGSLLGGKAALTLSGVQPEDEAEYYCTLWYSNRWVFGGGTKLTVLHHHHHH
T6 sequence (chain, as listed by the source): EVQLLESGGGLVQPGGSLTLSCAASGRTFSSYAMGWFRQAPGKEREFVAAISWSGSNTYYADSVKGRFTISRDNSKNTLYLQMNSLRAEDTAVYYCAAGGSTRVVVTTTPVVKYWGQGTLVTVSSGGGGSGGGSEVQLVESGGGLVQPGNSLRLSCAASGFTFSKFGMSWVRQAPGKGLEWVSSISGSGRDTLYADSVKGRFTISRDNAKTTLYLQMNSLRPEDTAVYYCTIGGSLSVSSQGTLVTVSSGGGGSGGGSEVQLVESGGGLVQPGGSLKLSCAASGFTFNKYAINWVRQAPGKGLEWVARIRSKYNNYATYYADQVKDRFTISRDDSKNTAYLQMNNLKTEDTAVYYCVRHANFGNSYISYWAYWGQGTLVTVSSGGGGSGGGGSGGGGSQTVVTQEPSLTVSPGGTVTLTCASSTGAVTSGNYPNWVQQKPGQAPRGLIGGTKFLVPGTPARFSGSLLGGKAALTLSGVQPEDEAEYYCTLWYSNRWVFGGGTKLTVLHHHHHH
T8 sequence (chain, as listed by the source): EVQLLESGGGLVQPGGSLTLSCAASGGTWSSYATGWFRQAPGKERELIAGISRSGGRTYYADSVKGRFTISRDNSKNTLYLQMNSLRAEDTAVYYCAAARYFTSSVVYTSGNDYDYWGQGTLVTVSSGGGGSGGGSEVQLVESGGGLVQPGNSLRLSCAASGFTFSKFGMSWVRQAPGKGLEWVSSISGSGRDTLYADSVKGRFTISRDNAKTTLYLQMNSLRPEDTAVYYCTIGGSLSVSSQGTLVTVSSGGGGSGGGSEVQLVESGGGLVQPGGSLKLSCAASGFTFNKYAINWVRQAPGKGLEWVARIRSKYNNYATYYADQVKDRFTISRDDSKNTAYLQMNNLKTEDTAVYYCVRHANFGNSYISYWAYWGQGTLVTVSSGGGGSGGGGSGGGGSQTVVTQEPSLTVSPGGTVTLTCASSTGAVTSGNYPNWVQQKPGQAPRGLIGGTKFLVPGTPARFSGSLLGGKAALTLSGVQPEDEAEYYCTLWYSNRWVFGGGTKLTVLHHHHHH
T14 sequence (chain, as listed by the source): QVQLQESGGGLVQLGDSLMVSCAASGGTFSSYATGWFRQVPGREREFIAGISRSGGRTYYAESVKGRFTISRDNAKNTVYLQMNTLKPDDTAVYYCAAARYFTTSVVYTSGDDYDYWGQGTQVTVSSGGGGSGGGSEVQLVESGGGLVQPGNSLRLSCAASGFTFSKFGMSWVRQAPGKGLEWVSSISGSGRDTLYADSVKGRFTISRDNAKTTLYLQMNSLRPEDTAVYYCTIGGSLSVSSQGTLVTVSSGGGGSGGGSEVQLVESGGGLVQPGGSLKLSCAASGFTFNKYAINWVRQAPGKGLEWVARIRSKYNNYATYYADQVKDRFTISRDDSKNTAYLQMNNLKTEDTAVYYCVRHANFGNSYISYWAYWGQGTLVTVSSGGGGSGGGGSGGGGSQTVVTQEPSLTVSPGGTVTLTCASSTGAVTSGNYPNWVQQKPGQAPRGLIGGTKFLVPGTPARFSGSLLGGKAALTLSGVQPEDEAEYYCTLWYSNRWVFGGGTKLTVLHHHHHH
T3 sequence (chain, as listed by the source): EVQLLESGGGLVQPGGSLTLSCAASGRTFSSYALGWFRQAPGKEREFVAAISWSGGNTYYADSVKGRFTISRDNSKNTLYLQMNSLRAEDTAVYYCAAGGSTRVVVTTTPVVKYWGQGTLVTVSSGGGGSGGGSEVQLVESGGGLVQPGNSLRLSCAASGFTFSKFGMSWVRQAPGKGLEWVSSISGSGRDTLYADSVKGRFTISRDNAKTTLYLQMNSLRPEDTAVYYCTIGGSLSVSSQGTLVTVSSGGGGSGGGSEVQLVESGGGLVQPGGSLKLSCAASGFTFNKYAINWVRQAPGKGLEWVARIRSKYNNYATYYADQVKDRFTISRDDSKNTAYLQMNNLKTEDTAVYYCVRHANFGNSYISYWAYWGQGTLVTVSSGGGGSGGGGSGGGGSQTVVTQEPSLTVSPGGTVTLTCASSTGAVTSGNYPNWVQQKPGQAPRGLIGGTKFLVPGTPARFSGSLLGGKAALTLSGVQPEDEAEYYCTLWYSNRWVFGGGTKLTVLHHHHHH
T5 sequence (chain, as listed by the source): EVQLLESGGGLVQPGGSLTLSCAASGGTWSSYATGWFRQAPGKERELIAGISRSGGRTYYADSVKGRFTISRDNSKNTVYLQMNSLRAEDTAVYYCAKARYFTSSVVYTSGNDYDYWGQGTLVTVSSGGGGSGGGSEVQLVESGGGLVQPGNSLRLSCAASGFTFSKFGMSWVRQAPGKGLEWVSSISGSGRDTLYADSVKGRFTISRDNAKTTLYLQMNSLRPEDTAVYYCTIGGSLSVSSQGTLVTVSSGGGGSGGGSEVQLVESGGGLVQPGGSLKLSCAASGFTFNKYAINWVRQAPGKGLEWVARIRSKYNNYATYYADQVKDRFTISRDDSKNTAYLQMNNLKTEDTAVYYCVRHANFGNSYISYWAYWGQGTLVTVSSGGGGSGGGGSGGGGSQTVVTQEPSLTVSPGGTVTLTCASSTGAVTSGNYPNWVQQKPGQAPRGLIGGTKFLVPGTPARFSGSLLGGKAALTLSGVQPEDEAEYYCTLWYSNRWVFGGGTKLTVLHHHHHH
T7 sequence (chain, as listed by the source): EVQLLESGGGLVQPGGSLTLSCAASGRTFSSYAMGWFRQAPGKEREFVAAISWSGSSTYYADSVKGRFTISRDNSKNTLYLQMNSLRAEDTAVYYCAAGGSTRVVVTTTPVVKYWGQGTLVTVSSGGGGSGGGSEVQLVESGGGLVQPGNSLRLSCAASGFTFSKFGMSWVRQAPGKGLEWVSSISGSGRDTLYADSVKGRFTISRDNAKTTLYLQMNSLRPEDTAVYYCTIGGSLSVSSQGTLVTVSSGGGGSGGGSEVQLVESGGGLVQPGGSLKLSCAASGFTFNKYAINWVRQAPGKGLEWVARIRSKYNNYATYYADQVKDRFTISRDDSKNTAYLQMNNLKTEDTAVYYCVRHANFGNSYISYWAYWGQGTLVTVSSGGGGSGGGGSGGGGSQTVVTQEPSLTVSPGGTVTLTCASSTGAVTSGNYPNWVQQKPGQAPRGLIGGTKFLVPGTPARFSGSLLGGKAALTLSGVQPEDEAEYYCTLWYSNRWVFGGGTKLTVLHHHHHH
T2 sequence (chain, as listed by the source): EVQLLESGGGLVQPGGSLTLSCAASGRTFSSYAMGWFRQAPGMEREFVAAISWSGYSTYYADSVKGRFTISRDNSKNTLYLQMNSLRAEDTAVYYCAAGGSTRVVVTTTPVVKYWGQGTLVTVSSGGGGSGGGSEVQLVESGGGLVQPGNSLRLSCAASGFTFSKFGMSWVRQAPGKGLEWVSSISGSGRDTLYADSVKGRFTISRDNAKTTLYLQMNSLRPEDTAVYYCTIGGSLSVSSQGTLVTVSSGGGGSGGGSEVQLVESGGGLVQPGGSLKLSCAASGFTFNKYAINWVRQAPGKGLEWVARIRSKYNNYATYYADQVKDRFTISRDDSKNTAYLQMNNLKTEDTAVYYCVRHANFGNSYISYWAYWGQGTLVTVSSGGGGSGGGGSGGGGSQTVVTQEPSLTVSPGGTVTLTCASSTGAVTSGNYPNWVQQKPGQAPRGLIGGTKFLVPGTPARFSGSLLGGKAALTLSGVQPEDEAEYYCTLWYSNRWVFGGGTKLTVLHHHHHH

- Kd [1]: 2.7 nM
- Kd [2]: 35 nM
- Kd [3]: 19 nM
- Kd [4]: 214 nM
- Kd [5]: 7.8 nM
- Kd [6]: 10 nM
- Kd [7]: 161 nM
- Kd [8]: 11.8 nM
- Kd [9]: 26 nM
- Kd [10]: 2 nM
- Kd [11]: 24 nM
- Kd [12]: 18 nM
- Kd [13]: 102 nM
- Kd [14]: 34 nM
B1: biotinylated cynomolgus FLT3 protein (receptor, cynomolgus monkey)
chain: NQDLPVIKCVLINHKNNDSSVGKSSSYPMVSESPEDLGCALRPQSAGTVYEAATVEVDVSASITLQVLVDTPGNISCLWVFKHSSLNCQPHFDVQNRGVVSMVILKMTETQAGEYLLFIQSEATNYTIVFTVSIRNTLLFTLRRPYFRKMENQDALVCISESVPEPIVEWVLCDSQGESCKEESPAVVKKEEKVLHELFGTDIRCCARNELGRECTRLFTIDLNQTPQTTLPQLFLKVGEPLWIRCKAVHVNHGFGLTWELENKALEEGSYFEMSTYSTNRTMIRILFAFVSSVARNDTGYYTCSSSKHPSQSALVTIVEKGFINATNSSEDYEIDQYEEFCFSVRFKAYPQIRCTWTFSRKAFPCEQKALDDGYSVSKFCNHKHQPGEYIFHAENGDAQFTKMFTLNIRRKPQVLAEASASQASCSSDGYPLPSWTWKKCSDKSPNCTEDIPEGVWNRKANRKVFGQWVSSSTLNMSEAMKGFLVKCCAYNSLGTSCETILLNSPGPFPFIQDS
modifications: biotinylated (sites not given)
notes: loaded on streptavidin Octet tips; also called Cynomolgus Monkey FLT3

- Kd [15]: 4.4 nM
B2: cynomolgus serum albumin (other, cynomolgus monkey, UniProt A2V9Z4 25-608, looked up)
chain: DTHKSEVAHRFKDLGEEHFKGLVLVAFSQYLQQCPFEEHVKLVNEVTEFAKTCVADESAENCDKSLHTLFGDKLCTVATLRETYGEMADCCAKQEPERNECFLQHKDDNPNLPPLVRPEVDVMCTAFHDNEATFLKKYLYEVARRHPYFYAPELLFFAARYKAAFAECCQAADKAACLLPKLDELRDEGKASSAKQRLKCASLQKFGDRAFKAWAVARLSQKFPKAEFAEVSKLVTDLTKVHTECCHGDLLECADDRADLAKYMCENQDSISSKLKECCDKPLLEKSHCLAEVENDEMPADLPSLAADYVESKDVCKNYAEAKDVFLGMFLYEYARRHPDYSVMLLLRLAKAYEATLEKCCAAADPHECYAKVFDEFQPLVEEPQNLVKQNCELFEQLGEYKFQNALLVRYTKKVPQVSTPTLVEVSRNLGKVGAKCCKLPEAKRMPCAEDYLSVVLNRLCVLHEKTPVSEKVTKCCTESLVNRRPCFSALELDEAYVPKAFNAETFTFHADMCTLSEKEKQVKKQTALVELVKHKPKATKEQLKGVMDNFAAFVEKCCKADDKEACFAEEGPKFVAASQAALA
